Patent US20130225506A1 (POLYPHOR, published 2013)
Square brackets hold non-standard residues; d marks the D form. dPro(cis-4-NH2) = N[C@H]1CN[C@@H](C(=O)O)C1; Tic = O=C(O)[C@@H]1Cc2ccccc2CN1; aThr = C[C@H](O)[C@H](N)C(=O)O; Orn(A56) = not defined here; Orn(Ar2) = not defined here; hSer = N[C@@H](CCO)C(=O)O; Orn = NCCC[C@H](N)C(=O)O; A56 = not defined here; Ar7 = not defined here; Tiq = not defined here

B1: cyclo(-Trp-^DPhe-Trp-Orn(A56)-^DPro((4R)NH2)-Tiq-) (peptide)
peptide: cyclo(W[dF]W[Orn](A56)[dPro(cis-4-NH2)][Tiq])
modifications: reading uncertain; also: printed as cyclo(-Trp-^DPhe-Trp-Orn(A56)-^DPro((4R)NH2)-Tiq-)
B2: cyclo(-Ile-^DArg-Arg-Trp-^DPro-alloThr-) (peptide)
peptide: cyclo(I[dR]RW[dP][aThr])
SMILES: CC[C@H](C)[C@@H]1NC(=O)[C@H]([C@H](C)O)NC(=O)[C@H]2CCCN2C(=O)[C@H](Cc2c[nH]c3ccccc23)NC(=O)[C@H](CCCNC(=N)N)NC(=O)[C@@H](CCCNC(=N)N)NC1=O
B3: cyclo(-Ile-^DArg-Arg-Trp-^DPro-hSer-) (peptide)
peptide: cyclo(I[dR]RW[dP][hSer])
SMILES: CC[C@H](C)[C@@H]1NC(=O)[C@H](CCO)NC(=O)[C@H]2CCCN2C(=O)[C@H](Cc2c[nH]c3ccccc23)NC(=O)[C@H](CCCNC(=N)N)NC(=O)[C@@H](CCCNC(=N)N)NC1=O
B4: cyclo(-Trp-^DPhe-Trp-Orn(Ar7)-^DPro((4R)NH2)-Tic-) (peptide)
peptide: cyclo(W[dF]W[Orn](Ar7)[dPro(cis-4-NH2)][Tic])
modifications: reading uncertain; also: printed as cyclo(-Trp-^DPhe-Trp-Orn(Ar7)-^DPro((4R)NH2)-Tic-)
B5: cyclo(-Orn(A56)-^DPhe-Trp-Arg-^DPro((4R)NH2)-Tic-) (peptide)
peptide: cyclo([Orn(A56)][dF]WR[dPro(cis-4-NH2)][Tic])
modifications: reading uncertain; also: printed as cyclo(-Orn(A56)-^DPhe-Trp-Arg-^DPro((4R)NH2)-Tic-)
B6: cyclo(-Trp-^DPhe-Trp-Orn(A56)-^DPro((4R)NH2)-Tic-) (peptide)
peptide: cyclo(W[dF]W[Orn](A56)[dPro(cis-4-NH2)][Tic])
modifications: reading uncertain; also: printed as cyclo(-Trp-^DPhe-Trp-Orn(A56)-^DPro((4R)NH2)-Tic-)
B7: cyclo(-Orn(Ar2)-^DPhe-Trp-Arg-^DPro((4R)NH2)-Tic-) (peptide)
peptide: cyclo([Orn(Ar2)][dF]WR[dPro(cis-4-NH2)][Tic])
modifications: reading uncertain; also: printed as cyclo(-Orn(Ar2)-^DPhe-Trp-Arg-^DPro((4R)NH2)-Tic-)

Target: chemokine receptor CXCR7 (UniProt P25106 1-362, limits assumed)
Assay: cell-based or functional assay

chemokine receptor CXCR7, sequence (P25106 whole entry): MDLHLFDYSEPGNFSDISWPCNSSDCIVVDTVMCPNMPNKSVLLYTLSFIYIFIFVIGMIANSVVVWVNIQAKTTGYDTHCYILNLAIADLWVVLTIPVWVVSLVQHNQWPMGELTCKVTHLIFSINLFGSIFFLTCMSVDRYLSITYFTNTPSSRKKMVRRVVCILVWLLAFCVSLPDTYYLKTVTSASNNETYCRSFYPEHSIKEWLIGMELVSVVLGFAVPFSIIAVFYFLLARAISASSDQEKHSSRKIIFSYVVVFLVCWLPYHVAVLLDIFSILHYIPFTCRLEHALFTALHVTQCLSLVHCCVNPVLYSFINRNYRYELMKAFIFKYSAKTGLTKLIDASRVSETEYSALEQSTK

Binder | β-Arrestin EC50
B1 | 46.9 nM
B2 | 292 nM
B3 | 347 nM
B4 | 145 nM
B5 | 181 nM
B6 | 33.4 nM
B7 | 209 nM
cyclo([Ala(Tet)][dF]WR[dPro(cis-4-NH2)][Tic]) [cyclo(-Ala(Tet)-^DPhe-Trp-Arg-^DPro((4R)NH2)-Tic-)] | 28.1 nM
